Assay [1] concerns the target F-actin assembled from purified rabbit skeletal muscle actin (rabbit) (UniProt P68135). Briefly: co-sedimentation.
The target in assay [2] is IQGAP1 (native, from bovine adrenal) (bovine (endogenous in adrenal)). The assay can be described thus: AUC.
Assay [3] shares this target. Briefly: co-purification with quantitative immunoblot.
For assay [4] the target is unchanged. The assay can be described thus: co-purification with quantitative immunoblot. This is another data set of the same source. (In western blotting, separated proteins are transferred to a membrane and probed.)

Several values for one entry are separate records, joined by “and”; a condition that tells them apart may be missing. Identical values can stand only once. Like-named read-outs stand apart in the source and are kept apart here.

“IQGAP1 (native, from bovine adrenal) (natural protein)” displayed a percent of IQGAP1 able to bind F-actin (other experiments) in assay [1] of 85%. Moreover, the stoichiometry N (subunits per molecule) in assay [2] was found to be 2.
Turning to “Calmodulin co-purifying with native IQGAP1 from bovine adrenal (from UniProt P62157 1-149) (natural protein)”, the stoichiometry N (mol calmodulin per mol 190K) was 0.067 and 0.042 and 0.026 in assay [3]; 0.05 in assay [4].

These data come from article PMC2137827.
